Laboratory results: article PMC10663500, “High-throughput analysis system of interaction kinetics for data-driven antibody design” (Scientific Reports, 2023)
Residue numbers refer to the chain shown, from its start.

B1: toripalimab Fab H.T107A (Fab, V domains shown)
VH: QGQLVQSGAEVKKPGASVKVSCKASGYTFTDYEMHWVRQAPIHGLEWIGVIESETGGTAYNQKFKGRVTITADKSTSTAYMELSSLRSEDTAVYYCAREGITTVATAYYWYFDVWGQGTTVTVSS
VL: DVVMTQSPLSLPVTLGQPASISCRSSQSIVHSNGNTYLEWYLQKPGQSPQLLIYKVSNRFSGVPDRFSGSGSGTDFTLKISRVEAEDVGVYYCFQGSHVPLTFGQGTKLEIK
notes: heavy chain of Sm3 with this change; numbers count from the chain's first residue; as the light chain of Sm3; source: Brevibacillus, culture supernatant (ammonium sulfate precipitate); not shown: 6xHis, C-terminal, kept; 6xHN, C-terminal, kept
B2: toripalimab Fab H.V114Y (Fab, V domains shown)
VH: B1 VH with A107T, V114Y
VL: B1 VL
notes: as for B1
B3: toripalimab Fab L.V30A (Fab, V domains shown)
VH: B1 VH with A107T
VL: B1 VL with V30A
notes: as the heavy chain of Sm3; light chain of Sm3 with this change; numbers count from the chain's first residue; source: Brevibacillus, culture supernatant (ammonium sulfate precipitate); not shown: 6xHis, C-terminal, kept; 6xHN, C-terminal, kept
B4: toripalimab Fab H.Y109A (Fab, V domains shown)
VH: B1 VH with A107T, Y109A
VL: B1 VL
notes: as for B1
B5: toripalimab Fab L.Q27Y (Fab, V domains shown)
VH: B1 VH with A107T
VL: B1 VL with Q27Y
notes: as for B3
B6: toripalimab Fab L.N33A (Fab, V domains shown)
VH: B1 VH with A107T
VL: B1 VL with N33A
notes: as for B3
B7: toripalimab Fab H.M34A (Fab, V domains shown)
VH: B1 VH with M34A, A107T
VL: B1 VL
notes: as for B1
B8: toripalimab Fab L.S25A (Fab, V domains shown)
VH: B1 VH with A107T
VL: B1 VL with S25A
notes: as for B3
B9: toripalimab Fab L.S26A (Fab, V domains shown)
VH: B1 VH with A107T
VL: B1 VL with S26A
notes: as for B3
B10: toripalimab Fab L.S32A (Fab, V domains shown)
VH: B1 VH with A107T
VL: B1 VL with S32A
notes: as for B3
B11: toripalimab Fab L.S32Y (Fab, V domains shown)
VH: B1 VH with A107T
VL: B1 VL with S32Y
notes: as for B3
B12: toripalimab Fab L.I29A (Fab, V domains shown)
VH: B1 VH with A107T
VL: B1 VL with I29A
notes: as for B3
B13: toripalimab Fab L.R24Y (Fab, V domains shown)
VH: B1 VH with A107T
VL: B1 VL with R24Y
notes: as for B3

Biological target: T1, human programmed cell death protein 1 (hPD-1) C93S (aa 24-167) (Homo sapiens, UniProt Q15116, C93S)
T1 construct: made as a fusion with a TEV site and human Fc; the Fc was cut off with TEV protease; source: Expi293F, purified (Protein A, TEV cleavage of Fc, SEC; monomer fractions); not shown: Fc (human), C-terminal, cleaved
T1 sequence (Q15116 24-167 C93S): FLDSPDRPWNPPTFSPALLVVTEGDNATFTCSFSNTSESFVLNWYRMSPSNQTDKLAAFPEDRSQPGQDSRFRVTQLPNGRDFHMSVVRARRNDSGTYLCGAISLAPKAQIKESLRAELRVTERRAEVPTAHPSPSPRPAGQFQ
Test: SPR; Carterra LSA; Fab from the ammonium sulfate precipitate of the culture supernatant immobilised on a NiHC200M chip; hPD-1 (1-1024 nM) or mPD-1-Fc (4-1024 nM) as analyte, fourfold dilution series, no regeneration; HBS-EP pH 7.4, 25 °C; medians over the spots of a construct, KD = koff/kon
Conditions: one partner purified
Method in brief: (§1)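 Human PD-1 (1–1024 nM) or mouse PD-1-Fc (4–1024 nM), in fourfold series, was flowed without regeneration over Fabs captured in duplicate on a NiHC200M chip (Carterra LSA, 25 °C), using 10 min association and 5 min dissociation. The Fabs had been recovered from Brevibacillus culture supernatants by ammonium sulfate precipitation and redissolved in HBS-EP. For binding constants, KD was defined as koff/kon from per-construct medians, with rates fitted by the kdka model under slow- or fast-dissociation settings (best fit) and unconfirmed binders set to kon 10^3 […] and koff 10^−2 s^−1.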

B1 and B2 cannot be ordered by Kd: less than 1.53 nM for the first, 1.23 nM for the second.

Compared with B3, B4 is 3.6-fold lower in Kd: 2.21 nM for the first, 0.608 nM for the second. The second binds more tightly here.

B5 and B6 cannot be ordered by Kd: less than 0.342 nM for the first, less than 0.341 nM for the second.

First: B7
Second: B8
The Kd of the first is higher: 0.968 nM for the first, less than 0.503 nM for the second.

B9 and B10 cannot be ordered by Kd: 0.802 nM for the first, less than 1.35 nM for the second.

B11 and B12 cannot be ordered by Kd: less than 0.678 nM for the first, less than 0.466 nM for the second.

In the case of B13, the Kd is reported as less than 1.44 nM.

Going from B1 to B2, the koff rises from less than 1e-05 s⁻¹ to 2.39e-05 s⁻¹.

Compared with B3, B4 is 4.4-fold lower in koff: 6.23e-05 s⁻¹ for the first, 1.41e-05 s⁻¹ for the second.

B5 and B6 cannot be ordered by koff: less than 1e-05 s⁻¹ for the first, less than 1e-05 s⁻¹ for the second.

Compared with B7, B8 is lower in koff: 3.28e-05 s⁻¹ for the first, less than 1e-05 s⁻¹ for the second.

First: B9
Second: B10
The koff of the first is higher: 1.95e-05 s⁻¹ for the first, less than 1e-05 s⁻¹ for the second.

B11 and B12 cannot be ordered by koff: less than 1e-05 s⁻¹ for the first, less than 1e-05 s⁻¹ for the second.

B13 gave a koff of less than 1e-05 s⁻¹.

Compared with B1, B2 is 3-fold higher in kon: 6520 M⁻¹ s⁻¹ for the first, 19400 M⁻¹ s⁻¹ for the second.

B3 and B4 are within 1.5-fold of each other in kon: 28200 M⁻¹ s⁻¹ for the first, 23200 M⁻¹ s⁻¹ for the second.

B5 and B6 are within 1.5-fold of each other in kon: 29200 M⁻¹ s⁻¹ for the first, 29300 M⁻¹ s⁻¹ for the second.

Going from B7 to B8, the kon falls from 33900 M⁻¹ s⁻¹ to 19900 M⁻¹ s⁻¹ (1.7-fold).

Going from B9 to B10, the kon falls from 24300 M⁻¹ s⁻¹ to 7410 M⁻¹ s⁻¹ (3.3-fold).

B11 and B12 are within 1.5-fold of each other in kon: 14800 M⁻¹ s⁻¹ for the first, 21500 M⁻¹ s⁻¹ for the second.

B13 was tested, and the kon was 6930 M⁻¹ s⁻¹.

Biological target: T2, mouse programmed cell death protein 1 Fc fusion protein (mPD-1-Fc), mPD-1 C60S (aa 25-167) (Mus musculus, UniProt Q02242, stabilised)
T2 construct: not cleaved; source: Expi293F, purified (Protein A, SEC; dimeric fraction); not shown: Fc (human), C-terminal, kept
Test: as above
Conditions: one partner purified
Method in brief: as §1

B1 and B2 are within 1.5-fold of each other in Kd: 232 nM for the first, 235 nM for the second.

First: B3
Second: B4
The Kd of the first is 5.1-fold higher: 255 nM for the first, 49.7 nM for the second.

B5 and B6 are within 1.5-fold of each other in Kd: 216 nM for the first, 278 nM for the second.

Going from B7 to B8, the Kd falls from 153 nM to 65.2 nM (2.3-fold).

First: B9
Second: B10
The Kd of the first is 2.5-fold lower: 75 nM for the first, 185 nM for the second.

B11 and B12 are within 1.5-fold of each other in Kd: 95.6 nM for the first, 64 nM for the second.

B13 showed a Kd of 133 nM.

B1 and B2 are within 1.5-fold of each other in koff: 0.00703 s⁻¹ for the first, 0.00887 s⁻¹ for the second.

First: B3
Second: B4
The koff of the first is 5.3-fold higher: 0.00954 s⁻¹ for the first, 0.00179 s⁻¹ for the second.

B5 and B6 are within 1.5-fold of each other in koff: 0.0122 s⁻¹ for the first, 0.0135 s⁻¹ for the second.

Compared with B7, B8 is 1.8-fold lower in koff: 0.0068 s⁻¹ for the first, 0.00369 s⁻¹ for the second.

Going from B9 to B10, the koff rises from 0.00379 s⁻¹ to 0.0077 s⁻¹ (2-fold).

B11 and B12 are within 1.5-fold of each other in koff: 0.00346 s⁻¹ for the first, 0.00268 s⁻¹ for the second.

Work on B13 yielded a koff of 0.0047 s⁻¹.

B1 and B2 are within 1.5-fold of each other in kon: 30300 M⁻¹ s⁻¹ for the first, 37800 M⁻¹ s⁻¹ for the second.

B3 and B4 are within 1.5-fold of each other in kon: 37400 M⁻¹ s⁻¹ for the first, 36000 M⁻¹ s⁻¹ for the second.

B5 and B6 are within 1.5-fold of each other in kon: 56500 M⁻¹ s⁻¹ for the first, 48400 M⁻¹ s⁻¹ for the second.

B7 and B8 are within 1.5-fold of each other in kon: 44300 M⁻¹ s⁻¹ for the first, 56600 M⁻¹ s⁻¹ for the second.

B9 and B10 are within 1.5-fold of each other in kon: 50500 M⁻¹ s⁻¹ for the first, 41600 M⁻¹ s⁻¹ for the second.

B11 and B12 are within 1.5-fold of each other in kon: 36100 M⁻¹ s⁻¹ for the first, 41800 M⁻¹ s⁻¹ for the second.

B13 gave a kon of 35400 M⁻¹ s⁻¹.
